Reference: article doi:10.1101/2022.10.13.511879 (bioRxiv, 2022)
Substitutions are numbered along the chain they refer to. Numbers in names are those of the source. Values belong to the binder of their own block, whether it stands above or below them.

How the values were obtained:
POPDC2 p.W188X-VN155 = target: T1, POPDC2 p.W188X-VN155 (human, UniProt Q9HBU9 1-187); test: split reporter
T1 sequence (looked up): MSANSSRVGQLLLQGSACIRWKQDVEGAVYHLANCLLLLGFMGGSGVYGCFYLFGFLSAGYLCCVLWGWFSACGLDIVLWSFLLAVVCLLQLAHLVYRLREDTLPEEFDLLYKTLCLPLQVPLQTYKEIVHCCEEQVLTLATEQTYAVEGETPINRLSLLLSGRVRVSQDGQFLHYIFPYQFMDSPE

FRET or BRET = target: the molecule itself; test: FRET or BRET
[1] = target: the molecule itself; test: SDS-PAGE and Western blot of oligomer bands that withstand SDS
POPDC2-VN155 = target: T2, POPDC2-VN155 (human, UniProt Q9HBU9 1-364); test: split reporter
T2 sequence (looked up): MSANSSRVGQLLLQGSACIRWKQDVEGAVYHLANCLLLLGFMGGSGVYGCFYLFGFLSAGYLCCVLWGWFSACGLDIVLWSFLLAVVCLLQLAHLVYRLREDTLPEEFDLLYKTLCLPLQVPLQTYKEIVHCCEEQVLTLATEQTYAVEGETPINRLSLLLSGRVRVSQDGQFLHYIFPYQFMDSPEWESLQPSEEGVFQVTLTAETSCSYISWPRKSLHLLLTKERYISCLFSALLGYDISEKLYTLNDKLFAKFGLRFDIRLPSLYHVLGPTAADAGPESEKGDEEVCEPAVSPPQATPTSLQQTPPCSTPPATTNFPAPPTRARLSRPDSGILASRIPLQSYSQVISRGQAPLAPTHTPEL

BiFC signal relative to the wild-type pair (POPDC2 p.W188X-VN155): 0.59
B1: POPDC1-VC155 (natural protein, human, UniProt Q8NE79 1-360, looked up)
chain: MNYTESSPLRESTAIGFTPELESIIPVPSNKTTCENWREIHHLVFHVANICFAVGLVIPTTLHLHMIFLRGMLTLGCTLYIVWATLYRCALDIMIWNSVFLGVNILHLSYLLYKKRPVKIEKELSGMYRRLFEPLRVPPDLFRRLTGQFCMIQTLKKGQTYAAEDKTSVDDRLSILLKGKMKVSYRGHFLHNIYPCAFIDSPEFRSTQMHKGEKFQVTIIADDNCRFLCWSRERLTYFLESEPFLYEIFRYLIGKDITNKLYSLNDPTLNDKKAKKLEHQLSLCTQISMLEMRNSIASSSDSDDGLHQFLRGTSSMSSLHVSSPHQRASAKMKPIEEGAEDDDDVFEPASPNTLKVHQLP

B2: POPDC1 with C-terminal NanoLuc or HaloTag (NanoBRET constructs) (natural protein, human, UniProt Q8NE79 1-360, looked up)
chain: B1 chain
stoichiometry N (FRET or BRET): 2

B3: POPDC1-CFP (natural protein, human, UniProt Q8NE79 1-360, looked up)
chain: B1 chain
stoichiometry N [1]: 2

BiFC signal relative to the wild-type pair (POPDC2-VN155): 0.43
B4: POPDC1 p.S201F-VC155 (natural protein, human, UniProt Q8NE79 1-360, looked up)
chain: B1 chain with S201F

BiFC signal relative to the wild-type pair (POPDC2-VN155): 0.248
B5: POPDC1 p.Q153X-VC155 (domain or fragment, human, UniProt Q8NE79 1-152, looked up)
chain: MNYTESSPLRESTAIGFTPELESIIPVPSNKTTCENWREIHHLVFHVANICFAVGLVIPTTLHLHMIFLRGMLTLGCTLYIVWATLYRCALDIMIWNSVFLGVNILHLSYLLYKKRPVKIEKELSGMYRRLFEPLRVPPDLFRRLTGQFCMI
